Measurements from paper PMC5177931.

Molecular target: T1, Myc-tagged PDC E1, P08559
T1 chain: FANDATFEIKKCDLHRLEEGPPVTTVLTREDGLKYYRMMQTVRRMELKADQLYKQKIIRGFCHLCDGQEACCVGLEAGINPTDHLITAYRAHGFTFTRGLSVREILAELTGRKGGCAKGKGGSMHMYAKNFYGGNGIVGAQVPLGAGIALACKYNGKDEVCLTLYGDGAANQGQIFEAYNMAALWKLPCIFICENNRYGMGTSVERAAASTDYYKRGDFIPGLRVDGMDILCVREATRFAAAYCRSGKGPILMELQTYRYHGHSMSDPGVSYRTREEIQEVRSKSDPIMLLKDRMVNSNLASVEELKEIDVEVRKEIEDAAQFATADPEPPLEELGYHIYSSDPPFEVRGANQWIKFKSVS
Experiment: co-immunoprecipitation (anti-Myc IP, western blot for Flag-STAT3), band intensity printed under lanes
Settings: chain shown with the change; 293T cells, transient transfection; printed intensities relative to EV lane = 1; parent: 9.5

B1: Flag-STAT3 WT, P40763 K685R; K707R; K709R (protein)
chain: MAQWNQLQQLDTRYLEQLHQLYSDSFPMELRQFLAPWIESQDWAYAASKESHATLVFHNLLGEIDQQYSRFLQESNVLYQHNLRRIKQFLQSRYLEKPMEIARIVARCLWEESRLLQTAATAAQQGGQANHPTAAVVTEKQQMLEQHLQDVRKRVQDLEQKMKVVENLQDDFDFNYKTLKSQGDMQDLNGNNQSVTRQKMQQLEQMLTALDQMRRSIVSELAGLLSAMEYVQKTLTDEELADWKRRQQIACIGGPPNICLDRLENWITSLAESQLQTRQQIKKLEELQQKVSYKGDPIVQHRPMLEERIVELFRNLMKSAFVVERQPCMPMHPDRPLVIKTGVQFTTKVRLLVKFPELNYQLKIKVCIDKDSGDVAALRGSRKFNILGTNTKVMNMEESNNGSLSAEFKHLTLREQRCGNGGRANCDASLIVTEELHLITFETEVYHQGLKIDLETHSLPVVVISNICQMPNAWASILWYNMLTNNPKNVNFFTKPPIGTWDQVAEVLSWQFSSTTKRGLSIEQLTTLAEKLLGPGVNYSGCQITWAKFCKENMAGKGFSFWVWLDNIIDLVKKYILALWNEGYIMGFISKERERAILSTKPPGTFLLRFSESSKEGGVTFTWVEKDISGKTQIQSVEPYTKQQLNNMSFAEIIMGYKIMDATNILVSPLVYLYPDIPKEEAFGRYCRPESQEHPEADPGSAAPYLRTRFICVTPTTCSNTIDLPMSPRTLDSLMQFGNNGEGAEPSAGGQFESLTFDMELTSECATSPM
response: 2.4
